Measurements from paper PMC8764033, “Single-molecule analysis of specificity and multivalency in binding of short linear substrate motifs to the APC/C” (Nature Communications, 2022).
pKd: −log10 of the molar value.

Experiments:
[1] = target: Cdc20-activated yeast APC/C (S. cerevisiae | S. cerevisiae (endogenous in yeast)) (UniProt P26309); experiment: single-molecule off-rate (SMOR) assay, TIRF microscopy; target held on PEG/PEG-biotin glass by NeutrAvidin and biotinylated anti-Strep-Tag II antibody (tag on the activator); dye-labeled ligand (peptide no greater than 1 nM) in buffer C + BSA (20 mM HEPES pH 7.5, 150 mM KCl, 10% glycerol, 0.05% Tween-20, 1 mM DTT) with oxygen scavengers; mean dwell time from an exponential distribution; dwell times below 100 ms noted as single-frame (SF)
[2] = target: Cdc20-activated yeast APC/C with the mutant Apc10 subunit Apc10-4A (S. cerevisiae | S. cerevisiae (endogenous in yeast)) (UniProt P26309); experiment: as above
[3] = target: Cdh1-activated yeast APC/C with the mutant Apc10 subunit Apc10-4A (S. cerevisiae | S. cerevisiae (endogenous in yeast)) (UniProt P53197); experiment: as above
[4] = target: Cdh1-activated yeast APC/C (S. cerevisiae | S. cerevisiae (endogenous in yeast)) (UniProt P53197); experiment: as above
[5] = target: Cdh1-activated yeast APC/C (S. cerevisiae | S. cerevisiae (endogenous in yeast)) (UniProt P53197); experiment: fluorescence polarisation + other: single-molecule off-rate (SMOR) assay; inferred constants: kon from the KD of anisotropy and the koff of SMOR; KD for APC/C^Cdh1 from the dwell time with the kon of Cdh1 alone assumed

Chain of Hsl1 fragment (amino acids 667–872) with C-terminal HaloTag, wild-type degrons (P34244 667-872): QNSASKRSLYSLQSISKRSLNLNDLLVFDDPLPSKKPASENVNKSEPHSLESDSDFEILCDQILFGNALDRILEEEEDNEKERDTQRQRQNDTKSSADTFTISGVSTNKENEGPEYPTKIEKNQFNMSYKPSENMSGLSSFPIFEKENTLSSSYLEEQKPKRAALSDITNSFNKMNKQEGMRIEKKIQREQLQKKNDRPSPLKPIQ
Chain of Cdc20-activated yeast APC/C with the mutant Apc10 subunit Apc10-4A (S. cerevisiae | S. cerevisiae (endogenous in yeast)) (P26309 whole entry, looked up, change not shown, tested part not stated): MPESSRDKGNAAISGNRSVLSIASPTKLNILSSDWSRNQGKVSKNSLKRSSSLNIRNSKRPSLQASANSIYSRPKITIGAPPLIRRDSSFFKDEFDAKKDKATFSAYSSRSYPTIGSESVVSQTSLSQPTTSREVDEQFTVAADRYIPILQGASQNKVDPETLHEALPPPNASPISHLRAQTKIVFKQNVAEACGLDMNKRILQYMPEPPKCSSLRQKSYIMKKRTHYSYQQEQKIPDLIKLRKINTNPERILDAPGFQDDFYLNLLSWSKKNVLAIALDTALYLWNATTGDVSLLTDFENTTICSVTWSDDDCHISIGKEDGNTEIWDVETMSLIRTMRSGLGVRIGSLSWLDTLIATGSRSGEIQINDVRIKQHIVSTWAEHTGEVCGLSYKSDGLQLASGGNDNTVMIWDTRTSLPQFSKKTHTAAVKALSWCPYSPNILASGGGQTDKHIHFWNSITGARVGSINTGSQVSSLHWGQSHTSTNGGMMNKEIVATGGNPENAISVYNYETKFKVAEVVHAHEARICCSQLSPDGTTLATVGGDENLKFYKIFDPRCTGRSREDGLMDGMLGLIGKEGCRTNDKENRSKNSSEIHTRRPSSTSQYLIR
Chain of Cdh1-activated yeast APC/C with the mutant Apc10 subunit Apc10-4A (S. cerevisiae | S. cerevisiae (endogenous in yeast)) (P53197 whole entry, looked up, change not shown, tested part not stated): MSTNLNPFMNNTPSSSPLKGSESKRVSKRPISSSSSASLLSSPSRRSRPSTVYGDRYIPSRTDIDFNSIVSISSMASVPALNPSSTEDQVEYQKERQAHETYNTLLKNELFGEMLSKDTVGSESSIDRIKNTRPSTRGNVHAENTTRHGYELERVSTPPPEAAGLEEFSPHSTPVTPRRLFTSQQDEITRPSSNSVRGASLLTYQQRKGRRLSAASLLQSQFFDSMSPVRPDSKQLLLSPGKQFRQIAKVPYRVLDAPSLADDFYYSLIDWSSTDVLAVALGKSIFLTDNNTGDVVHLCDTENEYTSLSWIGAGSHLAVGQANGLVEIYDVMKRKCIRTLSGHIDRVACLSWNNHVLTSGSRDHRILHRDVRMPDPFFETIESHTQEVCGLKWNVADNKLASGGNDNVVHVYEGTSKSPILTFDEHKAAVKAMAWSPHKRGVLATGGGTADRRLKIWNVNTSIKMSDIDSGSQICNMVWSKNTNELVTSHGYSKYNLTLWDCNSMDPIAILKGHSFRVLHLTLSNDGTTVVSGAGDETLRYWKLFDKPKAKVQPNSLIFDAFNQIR

| Substance | mean dwell time [1] [s] | mean dwell time [2] [s] | mean dwell time [3] [s] | mean dwell time [4] [s] | pKd [5] |
| --- | --- | --- | --- | --- | --- |
| Hsl1 fragment (amino acids 667–872) with C-terminal HaloTag, wild-type degrons (from UniProt P34244 667-872) (domain or fragment) | 0.518 | 0.449 | 75.9 | 321 | 8.40 |
| Cy5-labeled Hsl1 D box peptide |  | 0.152 | 0.375 |  |  |
